According to paper PMC2885457:
Read-outs that look alike come from different tables or passages of the source.

What was measured:
[1] = target: Giardia lamblia tryptophanyl-tRNA synthetase (Giardia lamblia (strain WB)); assay: SEC
[2] = target: Giardia lamblia tryptophanyl-tRNA synthetase (Giardia lamblia (strain WB)); assay: SEC; remark: listed apart in the source

- stoichiometry N [1]: 2
- stoichiometry N [2]: 2
Substance: Giardia lamblia tryptophanyl-tRNA synthetase (enzyme)
